From the nanobody polyreactivity screen of Harvey et al. (2022)

Experiment: yeast display, Sf9 membrane polyspecificity reagent, FACS + sequencing; frameworks hold sequencing errors
Method in brief: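 Galactose induction of a Saccharomyces cerevisiae BJ5465 synthetic nanobody display library ran 36–48 hours. The cells were then stained for 1 hour at 4 °C with 10% biotinylated, detergent-solubilized Sf9 membrane reagent, pulled down on streptavidin microbeads and FACS-sorted into low and high (top ~1%) gates on expression and reagent-binding fluorescence. Labels for polyreactivity follow the gate of origin.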

Sequence | polyreactivity (PSR sort gate)
QVQLVESGGGLVHAGGSLRLSCAASGRIFVGYTMGGYRQGPGKERELVAAISWDGDITYYADSVKGRFTISRDKAKNTVYLQMNSLKPEDTAVYYCAVDLPVSESHHTLTFELDYWGQGSQVTVSS | low polyreactivity
QVQLVESGGGLVHAGGSLRLSCAASGRIFVGYYAMGWYRQAPGKERELVAAITIGGRTYYADSVKGRFTISRDNAKKTVYLQMKSLKPEDTAVYYCAASKYSRAYQEFGYWGQGTQVTVSS | high polyreactivity
QVQLVESGGGLVHAGGSLRLSCAASGRTFAPYTMGWYRPAPGKERELVASISTGGSTYYADSVKGRFTISRYNAKNTVYLQMNSLKPEDTAVYYCAATGWAYGYGYGYWGQGTQVTVSS | low polyreactivity
QVQLVESGGGLVHAGGSLRLSCAASGRTFNYYAMGWYRQAPGKERELVAAISKSTGNTYYADSVKGRFTISRDNAKNTVYLQMNSLKPEDTAVYYCAAKKRGSHVYQYDYCGQGTQVTVSS | low polyreactivity
QVQLVESGGGLVHAGGSLRLSCAASGRTQPYNAMGWYRQAPGKERELVAAISKRGSSTYYADSVKGRFTISRDNAKNTVYLQMNSLKPEDTAVYYCATPGPAVHGTRGEYDYWGQGTQVTVSS | high polyreactivity
QVQLVESGGGLVHAGGSLRLSCAASGSIFGANVMGWYRQAPGKERELVAAITRSGTRTYYADSVKGRFTISRDNAKNTVYLQMNSLKPEDTAVYYCAAVLRLSTLTTDFGYWGQGTQVTVSS | high polyreactivity
QVQLVESGGGLVHAGGSLRLSCAASGSIFGFNAMGWYRPAPGKERELVAAISSGSTYYADSVKGRYTISRDNAKTTVYLQMNSLKPEDTAVYYCAATTGYSWYGYWGQGTQVTVSS | low polyreactivity
QVQLVESGGGLVHAGGSLRLSCAASGSIFQGYAMGRYRQAPGKERDLVAAITASGGSTYYADSVKGRFTISRDNAKNTVYLQMNSLKPEDTAVYYCATDSYWRQDLYRYEYWGQGTQVTVSA | high polyreactivity
QVQLVESGGGLVHAGGSLRLSCAASGSIFTFYTMGWYRQAPGKERELVAAINWSGSRTYYADSVKGRFTISRDNAKNTVYLQMNSLKPEDTAVYYCAAYYYTGPTTVESDYWGQGTQVTVSS | high polyreactivity
QVQLVESGGGLVHAGGSLRLSCAASGSIFTIYAMGWYRQAPGKERELVAAISDRGTRTYYADSVKGRFTISRDNAKNTVYLQMNSLKPEDTAVYYCATDALYTYGYDYWGQGTQVTVSS | low polyreactivity
QVQLVESGGGLVHAGGSLRLSCAASGSIFTKYVMGWYRQAPGKERELVAAITYSGGNTYYADSVKGRFTISRDNAKNTVYFQMNSLKPEDTAVYYCAAKSSAHRGGYWGQGTQVTVSS | high polyreactivity
QVQLVESGGGLVHAGGSLRLSCAASGSIFWYYTMGSYRQAPGKERELVATIRWRSGSTYYADSVKGRYTISRDNAKNTVYLQMNTQKPEDTAVYYCAADLYSAVYFSRWSDYWGQGTQVTVSS | high polyreactivity
QVQLVESGGGLVHAGGSLRLSCAASGSIFYSNVMGWYRQAPGKERELVAAITRGGGTNYADSVKGRFTISRDNAKNTVYLQMNSLKPEDTAVYYCNRDPQKYRWIPRYDYWGQGTQVTVSS | low polyreactivity
QVQLVESGGGLVHAGGSLRLSCAASGSTFGANAMGWYRQAPGKEREFVAAISGSGTTTYYADSVKGRFTISRDNAKNSVYLQMNSLKPEDTAVYYCAKTRKGHWLEYWGQGTQVTVSS | low polyreactivity
QVQLVESGGGLVHAGGSLRLSCAASGSTFNYYAMGWYRQAPGKERELVAAIDWSGGSTYYADSVKGRFTISRDNAKNTVYLQMNSLKPEDTAVYYCAARTYDYSYRSYDYWGQGTQVTVSS | low polyreactivity
QVQLVESGGGLVHAGGSLRLSCAASGSTLAGYAMGWYRQAPGKERELVAAIDWTGGSTTYSDSVKGRFTISRDNAKNTVYLQMNSLKPEDTAVYFCHVDLGVNGDYWGQGTQVTVSS | low polyreactivity
QVQLVESGGGLVHAGGSLRLSCAASRSTFALNAMGWYRPAPGKERELVAAISRRGGSTYYADSVKGRFTISRDNAKNSVYLQMNSLKPEDTAVYYCAARYKRFTRFDYWGQGTQVTVSS | high polyreactivity
